The results in this text go back to patent publication US20240034786A1 (WUXI BIOLOGICS IRELAND, published 2024).

Assay [1] addresses T1, Human P-cadherin on cells (human, UniProt P22223 108-829).
T1 construct: whole, on cells; Endogenous P-cadherin on tumour cell lines; also called hPro1
Description: FACS on NCI-H1650 cells. As for the experimental part:
Binding of the test antibodies to P-cadherin expressed on cells was determined by flow cytometry analysis. […] 1×10⁵ cells/well (100 μL) were added to each well of a 96-well U-plate (Corning, #3799) and centrifuged at 1500 rpm (Eppendorf, #5810R) for 5 minutes before removing the supernatant. Antibodies serially diluted in 1% BSA/1×PBS (Ca+/Mg+) were added at 100 μL/well to the pelleted cells and incubated at 4° C. for 1 hour. Anon-related hIgG1 antibody was used as an isotype control. Cells were washed two times with 180 μL/well of 1% BSA/1×PBS (Ca+/Mg+) by centrifugation at 1500 rpm for 5 minutes at 4° C. Pelleted cells were resuspended in 100 μL/well Alexa647 conjugated Goat anti-human IgG Fc (Jackson, #109-605-098) 1:500 diluted in 1% BSA/1×PBS (Ca+/Mg+) for 30 minutes at 4° C. in the dark. Cells were then washed two times as described above. After the final wash, cells were resuspended in 100 μL 1% BSA/1×PBS (Ca+/Mg+) and fluorescence values were measured with a FACS Canto II cytometer (BD Biosciences). The amount of cell surface bound anti-P-cadherin antibody was assessed by measuring the mean fluorescence (MFI). The FACS raw data were analyzed by FlowJo software, wells containing no antibody or secondary antibody only were used to establish background fluorescence. Binding EC50 values were obtained by the four-parameter non-linear regression analysis using GraphPad Prism6 software.

Assay [2] addresses T1, Human P-cadherin on cells. Description: FACS on HCT-116 cells, antibody kept in human serum at 37 C, Day 4. As for the experimental part: The antibody stability in human serum was tested by FACS. Briefly, human serum was freshly isolated by centrifuging the fresh blood twice at 4000 rpm for 10 minutes. […] As a control, antibodies serum mix was frozen immediately without 37° C. incubation. For the FACS analysis, the samples from different time points were free-thawed simultaneously at 4° C. […] The cells were washed twice with 1% BSA/1×PBS (Ca+/Mg+). Alexa647 conjugated Goat anti-human IgG Fc (Jackson, #109-605-098) 1:500 diluted in 1% BSA/1×PBS (Ca+/Mg+) were added to the cells and incubated at 4° C. for 30 minutes. Cells were washed twice in the same buffer and the mean fluorescence (MFI) of stained cells was measured using a FACS Canto II cytometer (BD Biosciences) and analyzed by FlowJo. Wells containing no antibody or secondary antibody only were used to establish background fluorescence. Four-parameter non-linear regression analysis was used to obtain EC50 values for cell binding using GraphPad Prism6 software.

The target of assay [3] is T1, Human P-cadherin on cells. The assay is described as follows: cell-based or functional assay.
The target of assay [4] is T2, W319-hPro1.ECD.hFc (WT)-P3 (human, UniProt P22223 108-654).
T2 construct: range 108-654; also called Human P-cadherin ECD; not shown: human Fc by the code hFc
T2 sequence (P22223 108-654): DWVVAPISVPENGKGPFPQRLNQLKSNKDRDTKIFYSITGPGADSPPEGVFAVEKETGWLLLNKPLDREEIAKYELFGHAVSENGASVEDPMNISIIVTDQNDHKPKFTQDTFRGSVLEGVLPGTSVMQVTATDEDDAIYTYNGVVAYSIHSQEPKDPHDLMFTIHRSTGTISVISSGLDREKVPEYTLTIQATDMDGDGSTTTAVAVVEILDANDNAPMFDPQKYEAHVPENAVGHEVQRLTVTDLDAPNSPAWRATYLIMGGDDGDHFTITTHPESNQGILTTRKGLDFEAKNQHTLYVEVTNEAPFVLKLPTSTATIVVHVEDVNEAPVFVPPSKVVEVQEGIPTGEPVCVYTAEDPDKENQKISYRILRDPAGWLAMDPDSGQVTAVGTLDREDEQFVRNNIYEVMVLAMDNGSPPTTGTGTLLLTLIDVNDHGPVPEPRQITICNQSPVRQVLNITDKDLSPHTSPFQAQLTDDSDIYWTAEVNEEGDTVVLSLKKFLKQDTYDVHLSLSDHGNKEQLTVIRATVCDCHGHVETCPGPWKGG
The assay is described as follows: direct ELISA on coated antigen. As for the experimental part:
(§1) The binding of the antibodies to W319-hPro1.D1.ECD.hFc, W319-hPro1.D12.ECD.hFc (WT), W319-hPro1.D123.ECD.hFc (WT), W319-hPro1.D1234.ECD.hFc (WT) (2.5) and W319-hPro1.ECD.hFc (WT)-P3 were tested by a direct protein binding ELISA. 96-well high protein binding ELISA plates (Nunc MaxiSorp, ThermoFisher, Cat #: 442404) were coated overnight at 4° C. with 1 μg/mL antigens in Carbonate-bicarbonate buffer (20 mM Na2CO3, 180 mM NaHCO3, pH=9.2). All wells were washed three time with 300 μL per well of PBS/0.5‰ Tween-20 (v/v) and all the following wash steps in the assay were performed the same. The wells were then blocked for one hour with 2% BSA (Bovogen, Cat #: BSAS)/1×PBS (Ca+/Mg+) (Gibco, #14040-117) and washed three times. For the primary antibody binding, the testing antibodies including the BMKs and our antibodies serially diluted in 2% BSA/1×PBS (Ca+/Mg+) were added to the relevant wells and incubated at room temperature for two hours. Plates were washed three times prior to the addition of 100 μL of secondary antibody Goat anti-Human-IgG-F(ab′)2-HRP (Jackson, Cat #: 109-035-097) 5000-fold diluted in 2% BSA/1×PBS (Ca+/Mg+). Plates were incubated at room temperature for one hour, followed by six washes as describe above.
(§2) For the binding detection, 100 μL Tetramethylbenzidine (TMB) Substrate solution (Invitrogen, Cat #: 002023) was added to all wells for 10 minutes before stopping the reaction with 100 μL 2M HCl. The extent of the testing Abs binding to W319-hPro1.D1.ECD.hFc, W319-hPro1.D12.ECD.hFc (WT), W319-hPro1.D123.ECD.hFc (WT), W319-hPro1.D1234.ECD.hFc (WT) and W319-hPro1.ECD.hFc (WT)-P3 were determined by measuring the OD450 absorbance using the SpectraMax® M5e microplate reader. Wherever appropriate, binding EC50 values were obtained by the four-parameter non-linear regression analysis using GraphPad Prism 5 software.
(§3) Its binding epitope is different from BMKs.
For orientation: ELISA stands for enzyme-linked immunosorbent assay.

The target of assay [5] is T3, W319-hPro1.D12.ECD.hFc (WT) (human, UniProt P22223 108-348).
T3 construct: range 108-348; also called Human P-cadherin ECD domain 1&2; domain 1-2; not shown: human Fc by the code hFc
T3 sequence (P22223 108-348): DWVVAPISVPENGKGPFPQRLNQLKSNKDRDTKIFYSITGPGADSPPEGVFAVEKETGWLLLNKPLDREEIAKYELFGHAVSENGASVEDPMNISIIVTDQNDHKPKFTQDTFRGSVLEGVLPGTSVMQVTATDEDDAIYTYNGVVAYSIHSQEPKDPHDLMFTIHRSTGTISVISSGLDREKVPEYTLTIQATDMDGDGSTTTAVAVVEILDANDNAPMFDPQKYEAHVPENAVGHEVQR
The assay is described as follows: direct ELISA on coated antigen. As for the experimental part: as §1, §2, §3

The target of assay [6] is T4, W319-hPro1.D1.ECD.hFc (human, UniProt P22223 108-236).
T4 construct: range 108-236; also called Human P-cadherin ECD domain 1; not shown: human Fc by the code hFc
T4 sequence (P22223 108-236): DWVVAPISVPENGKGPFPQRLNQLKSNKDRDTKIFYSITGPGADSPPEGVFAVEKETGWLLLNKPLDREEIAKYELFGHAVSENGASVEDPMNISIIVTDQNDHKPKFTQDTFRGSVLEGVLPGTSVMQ
The assay is described as follows: direct ELISA on coated antigen. As for the experimental part:
as §1, §2, §3

Assay [7] deals with T5, W319-hPro1.D123.ECD.hFc (WT) (human, UniProt P22223 108-461).
T5 construct: range 108-461; also called Human P-cadherin ECD domain 1&2&3; domain 1-3; not shown: human Fc by the code hFc
T5 sequence (P22223 108-461): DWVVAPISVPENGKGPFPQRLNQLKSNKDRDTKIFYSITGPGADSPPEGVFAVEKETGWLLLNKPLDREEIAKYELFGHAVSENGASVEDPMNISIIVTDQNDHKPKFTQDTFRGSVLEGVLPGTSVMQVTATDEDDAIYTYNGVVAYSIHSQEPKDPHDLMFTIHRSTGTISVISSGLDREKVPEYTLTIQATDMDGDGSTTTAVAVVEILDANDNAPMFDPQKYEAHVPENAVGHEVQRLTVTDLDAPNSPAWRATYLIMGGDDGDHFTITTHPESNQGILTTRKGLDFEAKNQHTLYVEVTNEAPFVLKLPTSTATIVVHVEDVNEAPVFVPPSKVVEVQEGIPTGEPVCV
Description: direct ELISA on coated antigen. On the procedure: as §1, §2, §3

Assay [8] deals with T6, W319-hPro1.D1234.ECD.hFc (WT) (human, UniProt P22223 108-550).
T6 construct: range 108-550; also called Human P-cadherin ECD domain 1&2&3&4; domain 1-4; not shown: human Fc by the code hFc
T6 sequence (P22223 108-550): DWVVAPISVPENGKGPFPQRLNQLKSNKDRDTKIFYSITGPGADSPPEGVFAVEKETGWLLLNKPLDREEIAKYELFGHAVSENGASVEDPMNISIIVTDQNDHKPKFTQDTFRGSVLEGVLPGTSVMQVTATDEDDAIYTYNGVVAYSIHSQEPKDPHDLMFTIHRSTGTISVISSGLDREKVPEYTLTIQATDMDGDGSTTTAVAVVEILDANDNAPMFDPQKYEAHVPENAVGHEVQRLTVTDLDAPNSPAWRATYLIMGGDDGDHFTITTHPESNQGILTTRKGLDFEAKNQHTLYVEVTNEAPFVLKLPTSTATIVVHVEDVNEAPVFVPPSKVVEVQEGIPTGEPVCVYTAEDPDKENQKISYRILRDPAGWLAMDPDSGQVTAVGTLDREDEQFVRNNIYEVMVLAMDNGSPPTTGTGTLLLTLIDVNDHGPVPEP
The assay is described as follows: direct ELISA on coated antigen. As for the experimental part:
as §1, §2, §3

T1 sequence (P22223 108-829): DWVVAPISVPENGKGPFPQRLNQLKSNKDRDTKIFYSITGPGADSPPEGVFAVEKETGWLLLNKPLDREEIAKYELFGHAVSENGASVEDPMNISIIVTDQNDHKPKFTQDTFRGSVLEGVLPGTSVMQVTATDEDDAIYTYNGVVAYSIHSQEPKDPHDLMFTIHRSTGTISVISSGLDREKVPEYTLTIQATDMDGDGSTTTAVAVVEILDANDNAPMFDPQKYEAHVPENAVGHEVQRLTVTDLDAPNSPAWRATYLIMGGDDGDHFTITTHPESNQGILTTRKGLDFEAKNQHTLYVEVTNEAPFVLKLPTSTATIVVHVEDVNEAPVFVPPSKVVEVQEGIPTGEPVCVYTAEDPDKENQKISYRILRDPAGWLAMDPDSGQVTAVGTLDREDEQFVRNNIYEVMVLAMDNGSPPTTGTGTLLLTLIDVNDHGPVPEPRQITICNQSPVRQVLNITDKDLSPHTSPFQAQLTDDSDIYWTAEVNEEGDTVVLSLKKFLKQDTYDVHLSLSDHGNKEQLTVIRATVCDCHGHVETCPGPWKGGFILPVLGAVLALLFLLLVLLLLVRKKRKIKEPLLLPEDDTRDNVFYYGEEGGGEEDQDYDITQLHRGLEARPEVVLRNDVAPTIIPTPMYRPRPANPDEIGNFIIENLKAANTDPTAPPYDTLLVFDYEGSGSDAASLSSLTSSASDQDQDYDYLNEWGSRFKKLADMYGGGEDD

B1: W3195-1.53.1-p1-uIgG1L (antibody)
heavy: not shown
light: SYELTQPPSVSVSPGQTAQITCSGDKLGDKFASWYQQKSGQSPVVVIYQDNKRPSGFPERFSGSNSGNTATLTISGTQAMDEADYYCQAWDSSIVVFGGGTKLTVLGQPKAAPSVTLFPPSSEELQANKATLVCLISDFYPGAVTVAWKADSSPVKAGVETTTPSKQSNNKYAASSYLSLTPEQWKSHRSYSCQVTHEGSTVEKTVAPTECS
notes: also called W3195-p1 antibody
For B1, the EC50 in assay [1] came out at 0.22 nM; in assay [2], 0.16 nM; in assay [4] it was 0.14 nM; in assay [7], 0.08 nM; in assay [8], 0.087 nM. For the same molecule, the “internalization, Fab-ZAP CTG assay on HCC-1954, IC50” value in assay [3] was found to be 0.02 nM. Moreover, the “Max OD450” value in assay [4] is 2.88; in assay [5] it was 0.08; in assay [6], 0.07; in assay [7] it was 2.83; in assay [8], 2.88.

As usually defined, the EC50 is the concentration needed to bring the measured effect to its halfway point. Read a high EC50 as a need for much substance.
